Reference: US20150056222A1 (Regeneron, published 2015)
Where a chain is given by its changes, count along the chain named. In names and notes the source's numbering stands.

T1: human prolactin receptor (PRLR) on cells (human, UniProt P16471 25-622)
T1 construct: T47D, T47D#11 and MCF7 carry the endogenous receptor; also called hPRLR; HEK293/hPRLR
T1 sequence: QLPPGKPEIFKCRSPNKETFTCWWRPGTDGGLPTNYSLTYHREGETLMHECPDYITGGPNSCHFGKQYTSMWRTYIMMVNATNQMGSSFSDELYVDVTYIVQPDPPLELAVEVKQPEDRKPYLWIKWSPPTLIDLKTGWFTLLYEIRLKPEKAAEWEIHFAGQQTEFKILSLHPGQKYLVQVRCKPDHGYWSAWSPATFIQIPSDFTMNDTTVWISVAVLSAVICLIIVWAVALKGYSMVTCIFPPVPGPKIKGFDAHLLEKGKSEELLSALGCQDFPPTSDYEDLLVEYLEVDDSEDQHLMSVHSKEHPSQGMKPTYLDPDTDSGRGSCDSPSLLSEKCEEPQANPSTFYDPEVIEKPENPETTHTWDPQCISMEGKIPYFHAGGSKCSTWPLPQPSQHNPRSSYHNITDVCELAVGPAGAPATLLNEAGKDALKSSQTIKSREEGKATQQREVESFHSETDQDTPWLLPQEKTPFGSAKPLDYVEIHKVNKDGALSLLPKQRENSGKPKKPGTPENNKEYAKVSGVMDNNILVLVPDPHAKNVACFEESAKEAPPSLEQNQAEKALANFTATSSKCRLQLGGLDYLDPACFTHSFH

T2: monkey (macaca fascicularis) PRLR on HEK293 cells (macaca fascicularis, UniProt A0A2K5WXK1 25-619)
T2 construct: also called mfPRLR; HEK293/mfPRLR
T2 sequence: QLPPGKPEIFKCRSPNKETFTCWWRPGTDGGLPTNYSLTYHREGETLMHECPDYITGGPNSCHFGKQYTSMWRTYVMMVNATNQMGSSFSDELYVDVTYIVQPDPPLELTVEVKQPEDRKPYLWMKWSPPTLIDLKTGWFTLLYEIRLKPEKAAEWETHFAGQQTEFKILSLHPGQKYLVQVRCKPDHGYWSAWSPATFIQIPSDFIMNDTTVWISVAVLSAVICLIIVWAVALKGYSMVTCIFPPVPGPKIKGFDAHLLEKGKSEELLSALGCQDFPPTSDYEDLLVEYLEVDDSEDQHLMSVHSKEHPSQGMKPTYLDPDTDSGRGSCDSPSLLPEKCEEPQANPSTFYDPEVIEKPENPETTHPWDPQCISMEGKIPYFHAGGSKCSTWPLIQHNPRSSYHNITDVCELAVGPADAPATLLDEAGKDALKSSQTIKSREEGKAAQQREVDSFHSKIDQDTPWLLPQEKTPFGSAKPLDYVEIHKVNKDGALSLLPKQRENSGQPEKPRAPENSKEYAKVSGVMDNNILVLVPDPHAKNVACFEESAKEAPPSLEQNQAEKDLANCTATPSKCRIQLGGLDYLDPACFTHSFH

T3: hPRLR.mFc (soluble dimeric human PRLR) (human)
T3 construct: dimeric construct
T3 chain: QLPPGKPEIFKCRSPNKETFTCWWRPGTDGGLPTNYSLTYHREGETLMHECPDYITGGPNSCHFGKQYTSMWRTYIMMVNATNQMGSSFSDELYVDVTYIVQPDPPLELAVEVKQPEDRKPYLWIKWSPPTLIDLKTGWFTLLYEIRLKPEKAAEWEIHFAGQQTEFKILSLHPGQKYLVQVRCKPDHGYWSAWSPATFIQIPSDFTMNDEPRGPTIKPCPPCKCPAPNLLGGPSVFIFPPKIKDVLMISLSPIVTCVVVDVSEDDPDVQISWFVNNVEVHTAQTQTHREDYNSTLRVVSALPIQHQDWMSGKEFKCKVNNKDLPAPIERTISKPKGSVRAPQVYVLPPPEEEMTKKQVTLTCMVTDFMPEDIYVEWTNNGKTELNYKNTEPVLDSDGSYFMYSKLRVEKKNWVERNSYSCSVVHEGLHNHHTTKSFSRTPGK

T4: hPRLR.mmh (soluble monomeric human PRLR) (human)
T4 construct: soluble monomeric construct
T4 chain: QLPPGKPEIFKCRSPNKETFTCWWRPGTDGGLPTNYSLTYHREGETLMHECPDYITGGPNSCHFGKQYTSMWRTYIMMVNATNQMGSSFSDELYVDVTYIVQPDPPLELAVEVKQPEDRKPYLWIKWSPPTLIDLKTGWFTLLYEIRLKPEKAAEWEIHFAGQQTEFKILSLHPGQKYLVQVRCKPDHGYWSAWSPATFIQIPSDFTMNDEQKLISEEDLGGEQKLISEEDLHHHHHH

T5: mfPRLR.mmh (soluble monomeric macaca fascicularis PRLR) (macaca fascicularis)
T5 construct: soluble monomeric construct; also called macaca fascicularis (mf) PRLR.mmh
T5 chain: T4 chain with I76V, A110T, I125M, I158T, T207I

T6: mouse PRLR on HEK293 cells (mouse, UniProt Q08501 20-608)
T6 construct: whole, on cells; also called mPRLR; HEK293/mPRLR
T6 sequence (looked up): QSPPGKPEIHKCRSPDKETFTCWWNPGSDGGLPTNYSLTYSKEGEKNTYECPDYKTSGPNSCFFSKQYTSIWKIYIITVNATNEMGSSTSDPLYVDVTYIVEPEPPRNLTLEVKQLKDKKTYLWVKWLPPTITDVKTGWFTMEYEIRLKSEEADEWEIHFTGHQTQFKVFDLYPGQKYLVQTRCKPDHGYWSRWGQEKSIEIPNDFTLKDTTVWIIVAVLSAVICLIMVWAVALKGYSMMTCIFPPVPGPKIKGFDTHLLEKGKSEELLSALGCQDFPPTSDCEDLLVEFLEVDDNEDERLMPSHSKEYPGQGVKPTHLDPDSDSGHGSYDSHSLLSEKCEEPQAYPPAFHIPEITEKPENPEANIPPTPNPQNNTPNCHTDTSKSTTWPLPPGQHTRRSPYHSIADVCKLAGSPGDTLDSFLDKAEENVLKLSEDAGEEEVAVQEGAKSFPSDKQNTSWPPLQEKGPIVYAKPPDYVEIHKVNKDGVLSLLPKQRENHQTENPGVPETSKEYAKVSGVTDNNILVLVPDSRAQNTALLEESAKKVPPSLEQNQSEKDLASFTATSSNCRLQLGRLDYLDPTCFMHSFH

B1: H1H6967N (antibody, human IgG1, V domains shown)
VH: EVQLVESGGDLVHPGRSLRLSCAASGFPFDEYAMHWVRQVPGKGLEWVSGISWSNNNIGYADSVKGRFTISRDNAKNSLYLQMNSLRPEDTAFYYCAKSGIFDSWGQGTLVTVSS
VL: EIVMTQSPATLSVSPGERATLSCRASQSVSRDLAWYQQKPGQAPRLLIHGASTRATGIPARFSGSGSGAEFTLIISSLQSEDFAVYYCQQYNNWPLTFGGGTKVEIK
notes: also called H2M6967N
B2: H1H6781P (antibody, human IgG1, V domains shown)
VH: EVQLVESGGDLVQPGESLRLSCTASGFTFNSYEMNWVRQAPGKGLEWVSYISSSGGTKYYVDSVKGRFTISRDNAKKSLYLQMNSLRADDTALYYCARLNGVDVFDIWGQGTMVTVSS
VL: DIQMTQSPSSLSASVGDRVTITCRASQDIFNYLAWFQQKPGKVPELLISAASTLQSGVPSRFSGSGSGTYFTLTISSLQPEDIATYYCQRYNSAPLTFGGGTKVEIK
notes: human IgG1 Fc (H1H)
B3: H1H6774P (antibody, human IgG1, V domains shown)
VH: EVQLVESGGGLAQPGGSLRLSCVASGFTFSTYWMSWVRQAPGKGLDWVGNIKQDGSEQNYVDSVRGRFTISRDNAKNSLFLQMNSLRAEDTGVYYCATLLTKGDYWGQGTLVTVSS
VL: DIQMTQSPSSLSASVGDSVTITCRASQDISNYLDWFQQKPGKAPKSLIYAASILQGGVPSRFSGSGYGTDFTLTISSLQPEDFATYYCRQYKTYPFTFGPGTKVDIK
notes: human IgG1 Fc (H1H)
B4: H1H6783P (antibody, human IgG1, V domains shown)
VH: QVQLQQSGPGLVKPSQTLSLTCAISGDSVSSNTFAWNWIRQSPSRGLEWLGRTYYRSKWYIDYAESVKSRITITPDTSKNQFSLQLNSVTPEDTALYYCAGGYTYAPRGAFDIWGQGTMVTVSS
VL: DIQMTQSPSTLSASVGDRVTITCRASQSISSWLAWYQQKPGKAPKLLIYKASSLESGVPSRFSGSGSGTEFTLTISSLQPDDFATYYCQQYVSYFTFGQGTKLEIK
notes: human IgG1 Fc (H1H)
B5: H1H6792P (antibody, human IgG1, V domains shown)
VH: EVQLVESGGGLVQPGRSLRLSCAASGFTLDDHAVHWVRQAPGKGLEWVSGISWNSVYIDYADSVKGRFTIFRDNAKNSLYLQMNSLRAEDTAFYYCARDIEGARDYWGQGTLVTVSS
VL: DIQMTQSPSSLSASVGDRVTITCRASQGIRNDLGWYQQKPGKAPKRLIYAASSLQSGVPSRFSGSGYGTEFTLTISSLQPEDFAPYYCLQHNSYPLTFGGGTKVEIK
notes: human IgG1 Fc (H1H)

Biological target: T1, human prolactin receptor (PRLR) on cells
Assay: FACS, T47D cells (native PRLR); also: test concentration or dose not given here

| Binder | FACS Cell Binding (Fold Above Background) |
| --- | --- |
| B1 | 41 fold above background |
| B2 | 40 fold above background |
| B3 | 39 fold above background |
| B4 | 38 fold above background |
| B5 | 37 fold above background |

Biological target: T2, monkey (macaca fascicularis) PRLR on …
Assay: FACS, HEK293/mfPRLR cells; also: test concentration or dose not given here

| Binder | FACS Cell Binding (Fold Above Background) |
| --- | --- |
| B1 | 28 fold above background |
| B2 | 26 fold above background |
| B3 | 29 fold above background |
| B4 | 27 fold above background |
| B5 | 28 fold above background |

Biological target: T1, human prolactin receptor (PRLR) on cells
Assay: FACS, HEK293/hPRLR cells; also: test concentration or dose not given here

| Binder | FACS Cell Binding (Fold Above Background) |
| --- | --- |
| B1 | 38 fold above background |
| B2 | 37 fold above background |
| B3 | 1 fold above background |
| B4 | 37 fold above background |
| B5 | 37 fold above background |

Biological target: T3, hPRLR.mFc (soluble dimeric human PRLR)
Assay: SPR, 37C, mAb capture
Method: (§1) Measurements were conducted on a T200 Biacore instrument. Kinetic association (kₐ) and dissociation (kd) rate constants were determined by processing and fitting the data to a 1:1 binding model using Scrubber 2.0 curve fitting software. Binding dissociation equilibrium constants (KD) and dissociative half-lives (t_{1/2}) were calculated from the kinetic rate constants as: KD (M)=kd/kₐ; and […].

| Binder | T½ |
| --- | --- |
| B1 | 119 min |
| B2 | 117 min |
| B3 | 60 min |
| B4 | 83 min |
| B5 | 66 min |

Biological target: T4, hPRLR.mmh (soluble monomeric human PRLR)
Assay: SPR, 37C, mAb capture
Method: as §1

| Binder | T½ |
| --- | --- |
| B1 | 12.4 min |
| B2 | 37 min |
| B3 | 4 min |
| B4 | 7 min |
| B5 | 5 min |

Biological target: T5, mfPRLR.mmh (soluble monomeric macaca …)
Assay: SPR, 37C, mAb capture
Method: as §1

| Binder | T½ |
| --- | --- |
| B1 | 7.1 min |
| B2 | 43 min |
| B3 | 3 min |
| B4 | 9 min |
| B5 | 4 min |

Biological target: T1, human prolactin receptor (PRLR) on cells
Assay: cell-based or functional assay

| Binder | % Internalization relative to Control I (alexa488 intensity in intracellular vesicles at 37 C, T47D cells) |
| --- | --- |
| B1 | 169% |
| B2 | 165% |
| B3 | 162% |
| B4 | 161% |
| B5 | 156% |

Biological target: T6, mouse PRLR on HEK293 cells
Assay: FACS, HEK293/mPRLR cells; also: test concentration or dose not given here

| Binder | FACS Cell Binding (Fold Above Background) |
| --- | --- |
| B1 | 2 fold above background |
| B2 | 1 fold above background |
| B3 | 1 fold above background |
| B4 | 1 fold above background |
| B5 | 3 fold above background |
